Test results from patent publication US20230374148A1, “BINDING MOLECULES THAT MULTIMERISE CD45” (UCB BIOPHARMA SRL, priority 2020, published 2023).

Experiments:
Assay type in all cases: cell-based
Ramos = experiment: Apoptosis of cell lines: Ramos; conditions: 21 hrs
From the text: (§1) The following cell lines representing various leukaemia's and lymphoma's, as classified by ATCC (www.atcc.org/), were used: Jurkat—acute T-cell leukaemia; CCRF-SB—B-cell acute lymphoblastic leukaemia; MC116—B-cell undifferentiated lymphoma; Raji, Ramos—Burkitt lymphoma (rare form of B-cell non-Hodgkin lymphoma); SU-DHL-4, SU-DHL-5, SU-DHL-8, NU-DUL-1, OCI-Ly3—Diffuse large B-cell lymphoma; THP-1—acute monocytic leukaemia; and Dakiki—B cell nasopharyngeal carcinoma.
(§2) Prior to an assay being performed, 1 vial of each of the above cell lines was thawed in a 37° C. water bath and then added to 20 ml complete media (RPMI 1640+2 mM GlutaMAX+1% Pen/Strep, all previous supplied by Invitrogen, +10% Fetal Bovine Serum (FBS), Sigma Aldrich). Cells were spun (500 g, 5 min, at RT) and re-suspended in 20 ml complete media to wash and spun again. Cells were resuspended in 10 ml complete media and then counted using a ChemoMetec NucleoCounter NC-3000. 6×10^6 cells of each cell line were spun (500 g, 5 min, at RT) and re-suspended in 4.8 ml complete media. 1×10^5 cells in 80 μl were then added to each well of a Corning Costar 96-well, cell culture treated, U-shaped-bottom microplate (cat no. 07-200-95). The plate was rested in a 37° C., 5% CO2 incubator for 2 hrs
(§3) Stocks of 4133-6294 BYbe and NegCtrl BYbe at 2500 nM in complete media were prepared. In a Greiner 96-well non-binding microplate, both reagents were serially diluted in complete media 1 in 5, seven times to produce to form an 8-point dose curve. […] (final well concentrations 500-0.0064 nM) was added to the cells. Each concentration was produced in triplicate. Camptothecin (cat no. C9911-100MG, Sigma Aldrich) and Staurosporine (cat no. 56942-200UL, Sigma Aldrich) were added as positive controls of apoptosis. Both were diluted in complete media and added to the well to produce a final concentration of 5 μM. Additional positive controls included anti-thymocyte globulin (ATG, indicated by FDA for use in conditioning regimens), Rituximab (anti-CD20, indicated by FDA for Non-Hodgkin Lymphoma and Chronic Lymphocytic Leukaemia) and Campath (anti-CD52, indicated by FDA for B-cell Chronic Lymphocytic Leukaemia). Anti-thymocyte globulin, Rituximab and Campath were added to the wells to produce final concentrations of 200 μg/ml, 500 nM and 200 μg/ml, respectively. […]
(§4) Following the incubation, the plates were spun at 500 g, 5 min, RT, the buffer was aspirated with a BioTek ELx405 microplate washer, and the cells were re-suspended in FACS buffer (PBS+1% bovine serum albumin (BSA)+0.1% NaN3+2 mM EDTA, Sigma Aldrich) to wash and then re-spun and buffer was aspirated to leave the cells in 20 μl residual media. […] Cells were analysed using the Bio-Rad ZE5 Cell Analyzer. […]

NU-DUL-1 = experiment: Apoptosis of cell lines: NU-DUL-1; conditions: NU-DUL-1, 21 hrs
From the text: as §1, §2, §3, §4

CCRF-SB = experiment: Apoptosis of cell lines: CCRF-SB; conditions: 21 hrs
From the text: as §1, §2, §3, §4

Human whole blood = experiment: Cytokine release in whole blood at 24 hrs, Luminex bead assay
Method: Human whole blood (Lithium heparin tubes) was taken from two donors (HTA #300120-1 & #300120-2) at UCB Pharma Slough, UK according to approved ethical sample collection protocol.
In a Greiner 96-well non-binding microplate, stocks of 4133-6294 BYbe and negative control BYbe (NegCtrl BYbe), with antigen-irrelevant specificity in both the Fab and scFv positions, were prepared in PBS at 5000 nM. The BYbe reagents were then serially diluted in PBS 1 in 5, three times to produce to form a 4-point dose curve. 12.5 μl of BYbe dilution was transferred into Corning Costar 96-well, cell culture treated, U-shaped-bottom microplate (cat no. 07-200-95) and 237.5 μl of whole blood added to each well. Final well concentrations of BYbes were 250 nm, 50 nM, 10 nm and 2 nM. Campath (clinical grade, diluted from 30 mg/ml stock to 1 mg/ml in PBS, lot number F1002H29) was used as a positive control at a final concentration of 10 μg/ml. Plates were sealed with a gas permeable adhesive seal and plate lids were replaced. Plates were then incubated for 24 hrs at 37° C. and 5% humidified CO2 in an undisturbed location.
Cytokine release was then assessed using a R&D Systems Luminex 13-plex human cytokine assay (custom selection of cytokines as follows; IL-1 RA, IL-4, IL-5, IL-6, IL-10, IL-11, IL-13, CCL2, IL-8, CXCL1, CX3CL1, GM-CSF and M-CSF). Following the 24-hour incubation, plates were spun at 1000 g for 10 mins and 50 μl of plasma was transferred to a separate plate containing 50 μl of assay diluent buffer (RD6-52 from the Luminex kit). Samples were resuspended thoroughly using a multichannel pipette and 50 μl transferred to the Luminex assay plate. Luminex assay standards were diluted 1 in 2, seven times to construct standard curves and added to the plate. 50 μl of microparticle mixture was then added to each well and plates incubated for 2 hrs at room temperature (RT) and mixed at 800 rpm. Plates were washed 3 times by adding 150 μl of wash buffer to each well then allowing the magnetic beads to bind to a BioTek ELx405 microplate washer magnet before supernatant was aspirated. 50 μl of biotin-antibody cocktail was added to each well at plates incubated for 1 hr at RT with shaking. Plates were then washed as before and a final addition of 50 μl of streptavidin-PE added to each well. Plates were incubated for 30 mins at RT with shaking before a final wash step and addition of 50 μl of wash buffer to each well. The Luminex assay plate was run using the iQUEplus flow cytometer (Sartorius). Standard curves were generated (using provided assay controls) and extrapolated cytokine values generated using Forecyt software (Sartorius). Data was then transferred to Graphpad Prism version 8.1 (Graphpad) to generate data visualisations.

[1] = Campath 10 μg/ml, donor #300120-1

Molecule: Campath: anti-CD52, clinical grade, indicated by FDA for B-cell Chronic Lymphocytic Leukaemia; positive control [reference compound]
- Campath mean (%) cell reduction (Ramos; 200 μg/ml): 39.40%
- Campath mean (%) cell reduction (NU-DUL-1; 200 μg/ml): 67.49%
- Campath mean (%) cell reduction (CCRF-SB; 200 μg/ml): 24.86%
- IL-6 level induced (Human whole blood; Campath 10 μg/ml, above PBS-treated wells): marked levels
- CCL2 level induced (Human whole blood; [1]): exceeded the standard curve
- IL-1 RA level induced (Human whole blood; [1]): exceeded the standard curve
- IL-8 level induced (Human whole blood; [1]): exceeded the standard curve

B1: 4133-6294 BYbe: anti-CD45 BYbe (Fab-scFv): 4133 Fab HC-G4S linker-6294 scFv heavy chain paired with 4133 light chain (antibody)
heavy: QEQLVESGGGLVQPEGSLTLTCTASGFSFSGNYYMCWVRQAPGKGLEWIGCLYTGSSGSTYYASWAKGRFTISKTSSTTVTLQMTSLTAADTATYFCARDLGYEIDGYGGLWGQGTLVTVSSGQPKAPSVFPLAPCCGDTPSSTVTLGCLVKGYLPEPVTVTWNSGTLTNGVRTFPSVRQSSGLYSLSSVVSVTSSSQPVTCNVAHPATNTKVDKTVAPSTCSKPGGGGSGGGGSEVQLVESGAELARPGASVKMSCKASGYTFTSYTMHWVKQRPGQCLEWIGYINPSSGYTEYNQKFKDKTTLTADKSSSTAYLQLSSLTSEDSAVYYCARVGDGFYPSWLAYWGQGTLVTVSSGGGGSGGGGSGGGGSGGGGSDIQMTQSPKFLLVSAGDRVTITCKASQSVRNDVAWYQQKPGQSPKLLIFYASKRYTGVPDRFTGSGYGTDFTFTISTVQAEDLAVYFCQQDYSSPTTFGCGTKLEIK
light: AQVLTQTPSPVSAVVGGTVSISCQASQSVYNNNNLSWYQQKPGQPPKLLIYDASKLASGVPSRFKGSGSGTQFTLTISGVQCDDAATYYCLGGYYSSGWYFAFGGGTKVVVKRTPVAPTVLIFPPAADQVATGTVTIVCVANKYFPDVTVTWEVDGTTQTTGIENSKTPQNSADCTYNLSSTLTLTSTQYNSHKEYTCKVTQGTTSVVQSFNRGDC
- Bottom (%) level of % cell reduction (Ramos): 1.61%
- Top (%) level of % cell reduction (Ramos): 96.11%
- Bottom (%) level of % cell reduction (NU-DUL-1): 5.07%
- Top (%) level of % cell reduction (NU-DUL-1): 44.87%
- Bottom (%) level of % cell reduction (CCRF-SB): 13.95%
- Top (%) level of % cell reduction (CCRF-SB): 83.40%
- induction of inflammatory cytokines (Human whole blood; 250-2 nM, compared with PBS- and NegCtrl BYbe-treated wells): little or no induction
